Target: T1, VP16/VP22trunc interaction (Human herpesvirus 1, UniProt P06492)
T1 construct: Plasmid pETVP16 was used to express full-length VP16 under the control of the T7 RNA polymerase promoter; made in house; host or cells: E. coli BL21(DE3)
Experiment: Co-purification of VP16 with VP22trunc on Ni-NTA resin in presence of peptides
Type: binding, HSV-1
Settings: for Co-elution of VP16 with VP22trunc from Ni-NTA resin after incubation with peptide: crude peptide at 2 mg/ml (about 1 mM), equal volume mixed with partially purified VP16 extract before VP22trunc; for Inhibition of VP16 co-elution with VP22trunc, peptides purified to homogeneity: peptides purified by reverse phase HPLC, data not shown
Method: FIG. 4 Co-elution of VP16 with VP22trunc from Ni-NTA resin. Partially purified extract containing VP16 was incubated in the absence of (lane 14) or presence of […] of VP22trunc (lanes 3 to 13). In lanes 3 to 12, an equal volume of the individual peptides at 2 mg/ml was added to the extract prior to VP22trunc. Peptides added to each reaction were as follows: lane 3, peptide A; lane 4, peptide B; lane 5, peptide C; lane 6, peptide D; lane 7, peptide E; lane 8, peptide F; lane 9, peptide G; lane 10, peptide H; lane 11, peptide I; lane 12, peptide J; lane 13, no peptide. Lanes 3 to 14 show the polypeptides eluted from Ni-NTA resin. Other samples were as follows: lane 1, partially purified VP16 extract, lane 2, purified VP16; lane 15, purified VP22trunc. Samples were electrophoresed on a 12% polyacrylamide gel and the apparent molecular weights of VP16 (65 KDa) and VP22trunc (16 KDa) are shown.
Co-purification of VP16 with VP22trunc on Ni-NTA Resin. Purified VP22trunc and a partially purified extract containing VP16, both in 20 mM Tris-HCl, pH8.0, 250 mM NaCl, were mixed at 4° C. for 15 to 30 minutes on a rotator. 50 μl of equilibrated Ni-NTA resin was added to each mixture and incubation was continued at 40C for a further 15 to 30 minutes. Resin was pelleted at 800 g for 1 minute and the supernatant (non-bound fraction) was removed. Resin was washed sequentially with 0.5 ml of 20 mM Tris-HCl, pH 8.0, 250 mM NaCl, 5 mM imidazole (twice) and 0.5 ml of 20 mM Tris-HCl, pH 8.0, 250 mM NaCl, 60 mM imidazole (four times). Bound protein was eluted by addition of 50 μl of boiling mix (160 mM Tris-HCl, pH 6.7, 2% SDS, 700 mM β-mercaptoethanol, 10% glycerol, 0.002% bromophenol blue) followed by heating to 100° C. for 5 minutes. For peptide studies, peptides were dissolved in 20 mM Tris-HCl, pH8.0, 250 mM NaCl at a concentration of 2 mg/ml. Incubation of peptides with partially purified VP16 extracts was performed at ambient temperature for 2 hours prior to the addition of VP22trunc. Samples were electrophoresed on denaturing polyacrylamide gels.
Results presented in Section 2(i) had shown that VP16 co-elutes from Ni-NTA resin in the presence of VP22trunc and it was concluded that this indicated interaction between these polypeptides. The ability of synthetic peptides to inhibit this interaction was analysed by mixing them individually with the partially purified VP16 extract prior to addition of VP22trunc. From the intensity of the 65 KDa species in the crude extract (FIG. 4, lane 2), it was estimated that the concentration of VP16 was approximately […]. To ensure that experiments were performed in an excess of peptide, peptides were prepared at a concentration of 2 mg/ml (about 1 mM) and equal volumes of peptide and extract were mixed. This gave a relative molar ratio of VP16 to peptide of 1:300. However, it should be noted that certain peptides were not completely soluble (Table 1) and in those cases, the ratio would be reduced.

T1 sequence (P06492 whole entry): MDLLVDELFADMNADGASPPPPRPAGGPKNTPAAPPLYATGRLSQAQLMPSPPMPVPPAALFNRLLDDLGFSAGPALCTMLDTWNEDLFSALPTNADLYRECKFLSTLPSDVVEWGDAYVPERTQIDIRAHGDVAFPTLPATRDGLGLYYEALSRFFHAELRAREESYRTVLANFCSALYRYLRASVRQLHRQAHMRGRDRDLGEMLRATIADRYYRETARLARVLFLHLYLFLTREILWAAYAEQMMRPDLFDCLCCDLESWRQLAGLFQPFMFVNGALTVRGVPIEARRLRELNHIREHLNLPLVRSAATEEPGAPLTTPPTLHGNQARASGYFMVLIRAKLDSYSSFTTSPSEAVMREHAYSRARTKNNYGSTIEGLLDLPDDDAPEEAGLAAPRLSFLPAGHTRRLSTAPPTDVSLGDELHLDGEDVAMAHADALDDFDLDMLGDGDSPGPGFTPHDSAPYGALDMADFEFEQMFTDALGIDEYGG

CAAVGRLAAMHARMAAVQLW [Peptide E] was tested, and the “Co-elution of VP16 with VP22trunc from Ni-NTA resin after incubation with peptide” value was “failed to co-elute” and the “Inhibition of VP16 co-elution with VP22trunc, peptides purified to homogeneity” value was “inhibitory capabilities were retained”.

With TPRVAGFNKRVFCAAVGRLA [Peptide D] the “Co-elution of VP16 with VP22trunc from Ni-NTA resin after incubation with peptide” value was “reduced amounts” and the “Inhibition of VP16 co-elution with VP22trunc, peptides purified to homogeneity” value was “inhibitory capabilities were retained”.

— US6200577A, “Anti-herpesviral agents and assays therefor” (priority 1996, dated 2001)
